Measurements published in IntAct's records for PubMed 16648845.

B1: Serine/threonine-protein kinase Nek2 (Homo sapiens), P51955 (parent)
chain: MPSRAEDYEVLYTIGTGSYGRCQKIRRKSDGKILVWKELDYGSMTEAEKQMLVSEVNLLRELKHPNIVRYYDRIIDRTNTTLYIVMEYCEGGDLASVITKGTKERQYLDEEFVLRVMTQLTLALKECHRRSDGGHTVLHRDLKPANVFLDGKQNVKLGDFGLARILNHDTSFAKTFVGTPYYMSPEQMNRMSYNEKSDIWSLGCLLYELCALMPPFTAFSQKELAGKIREGKFRRIPYRYSDELNEIITRMLNLKDYHRPSVEEILENPLIADLVADEQRRNLERRGRQLGEPEKSQDSSPVLSELKLKEIQLQERERALKAREERLEQKEQELCVRERLAEDKLARAENLLKNYSLLKERKFLSLASNPELLNLPSSVIKKKVHFSGESKENIMRSENSESQLTSKSKCKDLKKRLHAAQLRAQALSDIEKNYQLKSRQILGMR

Variants of: B1
Conditions: with cdc27_human CDC27, P30260
cdc27_human CDC27, P30260, sequence (P30260 whole entry): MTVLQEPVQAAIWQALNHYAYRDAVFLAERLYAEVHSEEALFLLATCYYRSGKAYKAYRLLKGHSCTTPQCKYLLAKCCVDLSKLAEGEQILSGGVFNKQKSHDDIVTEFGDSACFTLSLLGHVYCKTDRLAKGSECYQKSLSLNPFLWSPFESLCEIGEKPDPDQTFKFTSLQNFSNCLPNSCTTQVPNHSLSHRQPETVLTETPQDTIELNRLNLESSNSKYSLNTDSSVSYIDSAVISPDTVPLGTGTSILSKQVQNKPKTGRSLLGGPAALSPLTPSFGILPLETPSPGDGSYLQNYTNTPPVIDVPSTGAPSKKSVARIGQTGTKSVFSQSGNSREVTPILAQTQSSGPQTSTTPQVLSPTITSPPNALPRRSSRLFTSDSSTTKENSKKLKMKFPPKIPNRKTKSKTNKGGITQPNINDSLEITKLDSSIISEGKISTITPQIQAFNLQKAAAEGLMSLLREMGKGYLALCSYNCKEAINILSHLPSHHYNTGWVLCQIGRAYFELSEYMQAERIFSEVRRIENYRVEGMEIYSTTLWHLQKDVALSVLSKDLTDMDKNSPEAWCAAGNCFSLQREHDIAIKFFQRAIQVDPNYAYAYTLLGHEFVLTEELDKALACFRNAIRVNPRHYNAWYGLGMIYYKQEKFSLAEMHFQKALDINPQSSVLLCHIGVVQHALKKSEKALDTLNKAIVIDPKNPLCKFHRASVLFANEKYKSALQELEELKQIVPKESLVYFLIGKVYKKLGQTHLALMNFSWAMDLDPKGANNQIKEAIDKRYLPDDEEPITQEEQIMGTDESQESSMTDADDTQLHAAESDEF

effect of a mutation on the interaction | Variant
decreasing interaction | MPSRAEDYEVLYTIGTGSYGRCQKIRRKSDGKILVWKELDYGSMTEAEKQMLVSEVNLLRELKHPNIVRYYDRIIDRTNTTLYIVMEYCEGGDLASVITKGTKERQYLDEEFVLRVMTQLTLALKECHRRSDGGHTVLHRDLKPANVFLDGKQNVKLGDFGLARILNHDTSFAKTFVGTPYYMSPEQMNRMSYNEKSDIWSLGCLLYELCALMPPFTAFSQKELAGKIREGKFRRIPYRYSDELNEIITRMLNLKDYHRPSVEEILENPLIADLVADEQRRNLERRGRQLGEPEKSQDSSPVLSELKLKEIQLQERERALKAREERLEQKEQELCVRERLAEDKLARAENLLKNYSLLKERKFLSLASNPELLNLPSSVIKKKVHFSGESAAAIMRSEASESQLTSKSKCKDLKKRLHAAQLRAQALSDIEKNYQLKSRQILGMR [K391A;E392A;N393A;N399A]
